Target: SARS-CoV-2 spike HexaPro protein (SARS-CoV-2)
Assay: SPR

T1A (collagen XVIII trimerization domain, 1-residue G/S linker, ACE2 18-615) (from UniProt P39060;Q9BYF1)
Kd: 0.1 nM

T3A (collagen XVIII trimerization domain, 3-residue G/S linker, ACE2 18-615) (from UniProt P39060;Q9BYF1)
Kd: 0.37 nM

ACE2 monomer (human extracellular ACE2 domain, residues 18-615, cut from ACE2-TEV-Fc) (from UniProt Q9BYF1 18-615) (domain or fragment)
Kd: 49 nM | koff: 0.0073 s⁻¹ | kon: 150000 M⁻¹ s⁻¹

T5A (collagen XVIII trimerization domain, 5-residue G/S linker, ACE2 18-615) (from UniProt P39060;Q9BYF1)
Kd: 0.69 nM
